Where a SMILES comes first, the peptide text is derived from it. The star is where a group is joined. Biotin = O=C1N[C@H]2[C@H](CS[C@H]2CCCCC(=O)*)N1; Ahx = NCCCCCC(=O)O

These results are taken from US20030113711A1, “Protein kinase peptide substrate determination using peptide libraries” (priority 2001, published 2003).

The target in data set [1] is T1, EGFR (Homo sapiens, UniProt P00533). Put plainly: Kinetic evaluation of peptide substrates, varying peptide at fixed ATP (phosphocellulose filter, [γ-33P]ATP). The data set is classed as biochemical. The conditions noted are these: ATP concentration >10 × Km (200 μM ATP); for Kcat: varying peptide, 10 minutes at 23° C.; for Km: Km for peptide. On the procedure:
Peptide sequences identified as preferred substrates for ErbB-2 using the methods described in Laboratory Example 3 were synthesized. The kcat and Km values for each peptide were determined as follows, using the kinases ErbB-2, ErbB-4, and EGFR.
Reactions were performed in 96-well polystyrene round bottom plates in a final volume of 45 μL. Reaction mixtures contained 50 mM MOPS, pH 7.5, 10 mM MnCl2, 1 mM dithiothreitol (DTT), 200 μM ATP, 1.0 μCi [γ-^33P] ATP, and varying concentrations of peptide. The reaction was initiated by adding the purified kinase of interest and halted after 10 minutes at 23° C. (room temperature) by adding 45 μL of 0.5% phosphoric acid in water. A 75 μL aliquot of the halted reaction mixture was then transferred to MAPH phosphocellulose filter plates (Millipore, Bedford, Mass.). The plates were filtered three times with 0.2 mL of 0.5 percent phosphoric acid. Scintillation cocktail (50 μL) was added to each well, and the plate was analyzed by counting in a Packard TOPCOUNT® scintillation counter (Packard Instrument Co., Meriden, Conn.). In these assays, the concentration of ATP was greater than ten-fold higher than the Km for ATP, which permitted the kinetic data to be treated as a pseudo-first-order reaction with varying peptide concentration. All experiments were performed in quadruplicate and the average value for each data point was analyzed. The Km and Vmax values were calculated by fitting the data to the Henri-Michaelis-Menten equation by non-linear regression using SIGMAPLOT® (SPSS Science, Chicago, Ill.). kcat values were calculated using the Vmax value, and are based on the protein concentration of the enzyme preparation and an estimate of purity determined from an evaluation of a Coomassie Blue stained SDS-polyacrylamide gel.

Data set [2] concerns the target T1, EGFR. Briefly: Two-substrate kinetic comparison with known substrate, peptide and ATP varied simultaneously. The data set is classed as biochemical. The settings on record: peptide and ATP concentrations varied simultaneously, two-substrate fit. On the procedure: In a separate experiment, the kinetic parameters of both peptide number 1 shown in Table 2, and a peptide with the sequence Biotin-Ahx-G-G-M-E-D-I-Y-F-E-F-M-G-G-K-K-K-amide (SEQ ID NO: 17), which has been previously identified as an ErbB-2 substrate (Jan et. al., (2000), Biochemistry 39: 9786-803), were determined and compared. In this experiment, both peptide and ATP concentrations were varied, and the resulting data was simultaneously fit to an equation representing a two-substrate enzyme reaction using SIGMAPLOT®. Data was collected using the kinases ErbB-2, ErbB-4, and EGFR. The results of this experiment are shown in Table 3 and indicate that for all three kinases tested, peptide number 1 shown in Table 2 is kinetically at least equivalent (based on kcat/Km values) to the known peptide substrate identified by Jan et al.

Data set [3] has as its target T2, Biotin-Ahx-(SEQ ID NO: 12)-amide.
T2 chain: RAHEEIYHFFFAKKK

The target in data set [4] is T3, Biotin-Ahx-(SEQ ID NO: 13)-amide.
T3 chain: RAHHEIYHFFFAKKK

In data set [5] the target is T4, Biotin-Ahx-(SEQ ID NO: 14)-amide.
T4 chain: RAHHEEYHFFFAKKK

Data set [6] has as its target T5, Biotin-Ahx-(SEQ ID NO: 15)-amide.
T5 chain: RAHEEEYHFIFAKKK

For data set [7], the target named is T6, Biotin-Ahx-(SEQ ID NO: 16)-amide.
T6 chain: RAHEEEYHFFFAKKK

In data set [8] the target is T7, Biotin-Ahx-G-G-M-E-D-I-Y-F-E-F-M-G-G-K-K-K-amide (SEQ ID NO: 17).
T7 chain: GGMEDIYFEFMGGKKK

Consider `CC[C@H](C)[C@H](NC(=O)[C@H](Cc1ccccc1)NC(=O)[C@H](Cc1c[nH]cn1)NC(=O)[C@H](Cc1ccc(O)cc1)NC(=O)[C@H](CCC(=O)O)NC(=O)[C@H](CCC(=O)O)NC(=O)[C@H](CCC(=O)O)NC(=O)[C@H](Cc1c[nH]cn1)NC(=O)[C@H](C)NC(=O)[C@H](CCCNC(=N)N)NC(=O)CCCCCNC(=O)CCCC[C@@H]1SC[C@@H]2NC(=O)N[C@@H]21)C(=O)N[C@@H](Cc1ccccc1)C(=O)N[C@@H](C)C(=O)N[C@@H](CCCCN)C(=O)N[C@@H](CCCCN)C(=O)N[C@@H](CCCCN)C(N)=O` [Peptide 4, Biotin-Ahx-(SEQ ID NO: 15)-amide] ({Biotin-Ahx}-RAHEEEYHFIFAKKK-NH2), for which, on EGFR [1], the Kcat is 0.0567 s⁻¹ and the Michaelis-Menten constant (Km) (in general, the substrate concentration at which the rate is half of its maximum) is 10 µM.

Take `CC[C@H](C)[C@H](NC(=O)[C@H](CC(=O)O)NC(=O)[C@H](CCC(=O)O)NC(=O)[C@H](CCSC)NC(=O)CNC(=O)CNC(=O)CCCCCNC(=O)CCCC[C@@H]1SC[C@@H]2NC(=O)N[C@@H]21)C(=O)N[C@@H](Cc1ccc(O)cc1)C(=O)N[C@@H](Cc1ccccc1)C(=O)N[C@@H](CCC(=O)O)C(=O)N[C@@H](Cc1ccccc1)C(=O)N[C@@H](CCSC)C(=O)NCC(=O)NCC(=O)N[C@@H](CCCCN)C(=O)N[C@@H](CCCCN)C(=O)N[C@@H](CCCCN)C(N)=O` [Biotin-Ahx-(SEQ ID NO: 17)-amide, Biotin-Ahx-G-G-M-E-D-I-Y-F-E-F-M-G-G-K-K-K-amide, reference compound] ({Biotin-Ahx}-GGMEDIYFEFMGGKKK-NH2): at EGFR [2], the Kcat worked out at 0.218 s⁻¹ and the Michaelis-Menten constant (Km) was found to be 899 µM.

On to `CC[C@H](C)[C@H](NC(=O)[C@H](CCC(=O)O)NC(=O)[C@H](CCC(=O)O)NC(=O)[C@H](Cc1c[nH]cn1)NC(=O)[C@H](C)NC(=O)[C@H](CCCNC(=N)N)NC(=O)CCCCCNC(=O)CCCC[C@@H]1SC[C@@H]2NC(=O)N[C@@H]21)C(=O)N[C@@H](Cc1ccc(O)cc1)C(=O)N[C@@H](Cc1c[nH]cn1)C(=O)N[C@@H](Cc1ccccc1)C(=O)N[C@@H](Cc1ccccc1)C(=O)N[C@@H](Cc1ccccc1)C(=O)N[C@@H](C)C(=O)N[C@@H](CCCCN)C(=O)N[C@@H](CCCCN)C(=O)N[C@@H](CCCCN)C(N)=O` [Peptide 1, Biotin-Ahx-(SEQ ID NO: 12)-amide] ({Biotin-Ahx}-RAHEEIYHFFFAKKK-NH2), for which, on EGFR [1], the Kcat amounted to 0.102 s⁻¹ and the Km came to 8 µM. Besides, on EGFR [2], the Kcat was 0.0567 s⁻¹ and the Km stood at 128 µM.

Turning to `C[C@H](NC(=O)[C@H](CCCNC(=N)N)NC(=O)CCCCCNC(=O)CCCC[C@@H]1SC[C@@H]2NC(=O)N[C@@H]21)C(=O)N[C@@H](Cc1c[nH]cn1)C(=O)N[C@@H](CCC(=O)O)C(=O)N[C@@H](CCC(=O)O)C(=O)N[C@@H](CCC(=O)O)C(=O)N[C@@H](Cc1ccc(O)cc1)C(=O)N[C@@H](Cc1c[nH]cn1)C(=O)N[C@@H](Cc1ccccc1)C(=O)N[C@@H](Cc1ccccc1)C(=O)N[C@@H](Cc1ccccc1)C(=O)N[C@@H](C)C(=O)N[C@@H](CCCCN)C(=O)N[C@@H](CCCCN)C(=O)N[C@@H](CCCCN)C(N)=O` [Peptide 5, Biotin-Ahx-(SEQ ID NO: 16)-amide] ({Biotin-Ahx}-RAHEEEYHFFFAKKK-NH2), on EGFR [1], the Kcat is 0.04 s⁻¹ and the Michaelis-Menten constant (Km) was 7.5 µM.

For the molecule `CC[C@H](C)[C@H](NC(=O)[C@H](CCC(=O)O)NC(=O)[C@H](Cc1c[nH]cn1)NC(=O)[C@H](Cc1c[nH]cn1)NC(=O)[C@H](C)NC(=O)[C@H](CCCNC(=N)N)NC(=O)CCCCCNC(=O)CCCC[C@@H]1SC[C@@H]2NC(=O)N[C@@H]21)C(=O)N[C@@H](Cc1ccc(O)cc1)C(=O)N[C@@H](Cc1c[nH]cn1)C(=O)N[C@@H](Cc1ccccc1)C(=O)N[C@@H](Cc1ccccc1)C(=O)N[C@@H](Cc1ccccc1)C(=O)N[C@@H](C)C(=O)N[C@@H](CCCCN)C(=O)N[C@@H](CCCCN)C(=O)N[C@@H](CCCCN)C(N)=O` [Peptide 2, Biotin-Ahx-(SEQ ID NO: 13)-amide] ({Biotin-Ahx}-RAHHEIYHFFFAKKK-NH2), on EGFR [1], the Kcat came to 0.252 s⁻¹ and the Km was 105 µM.

On to `C[C@H](NC(=O)[C@H](CCCNC(=N)N)NC(=O)CCCCCNC(=O)CCCC[C@@H]1SC[C@@H]2NC(=O)N[C@@H]21)C(=O)N[C@@H](Cc1c[nH]cn1)C(=O)N[C@@H](Cc1c[nH]cn1)C(=O)N[C@@H](CCC(=O)O)C(=O)N[C@@H](CCC(=O)O)C(=O)N[C@@H](Cc1ccc(O)cc1)C(=O)N[C@@H](Cc1c[nH]cn1)C(=O)N[C@@H](Cc1ccccc1)C(=O)N[C@@H](Cc1ccccc1)C(=O)N[C@@H](Cc1ccccc1)C(=O)N[C@@H](C)C(=O)N[C@@H](CCCCN)C(=O)N[C@@H](CCCCN)C(=O)N[C@@H](CCCCN)C(N)=O` [Peptide 3, Biotin-Ahx-(SEQ ID NO: 14)-amide] ({Biotin-Ahx}-RAHHEEYHFFFAKKK-NH2), for which, on EGFR [1], the Kcat is 0.108 s⁻¹ and the Michaelis constant (Km) was determined as 12.2 µM.

B1: ErbB-4 (protein)
chain: RRKSIKKKRALRRFLETELVEPLTPSGTAPNQAQLRILKETELKRVKVLGSGAFGTVYKGIWVPEGETVKIPVAIKILNETTGPKANVEFMDEALIMASMDHPHLVRLLGVCLSPTIQLVTQLMPHGCLLEYVHEHKDNIGSQLLLNWCVQIAKGMMYLEERRLVHRDLAARNVLVKSPNHVKITDFGLARLLEGDEKEYNADGGKMPIKWMALECIHYRKFTHQSDVWSYGVTIWELMTFGGKPYDGIPTREIPDLLEKGERLPQPPICTIDVYMVMVKCWMIDADSRPKFKELAAEFSRMARDPQRYLVIQGDDRMKLPSPNDSKFFQNLLDEEDLEDMMDAEEYLVPQAFNIPPPIYTSRARIDSNRSEIGHSPPPAYTPMSGNQFVYRDGGFAAEQGVSVPYRAPTSTIPEAPVAQGATAEIFDDSCCNGTLRKPVAPHVQEDSSTQRYSADPTVFAPERSPRGELDEEGYMTPMRDKPKQEYLNPVEENPFVSRRKNGDLQALDNPEYHNASNGPPKAEDEYVNEPLYLNTFANTLGKAEYLKNNILSMPEKAKKAFDNPDYWNHSLPPRSTLQHPDYLQEYSTKYFYKQNGRIRPIVAENPEYLSEFSLKPGTVLPPPPYRHRNTVV
As for B1, the Kcat in data set [3] is 0.0683 s⁻¹; in data set [4], 0.0767 s⁻¹; in data set [5], 0.065 s⁻¹; in data set [6] it was 0.0217 s⁻¹; in data set [7], 0.015 s⁻¹. Also, the kcat (usually the maximal rate divided by the concentration of active sites) in data set [3] is 0.105 s⁻¹; in data set [8] it was 0.0767 s⁻¹. The “kinetic comparison with the known substrate (SEQ ID NO: 17), based on kcat/Km” value in data set [3] was “for all three kinases tested, peptide number 1 shown in Table 2 is kinetically at least equivalent (based on kcat/Km values) to the known peptide substrate identified by Jan et al”. In addition, the Km is 37.6 µM in data set [4]; 13.6 µM in data set [5]; 12.5 µM in data set [6]; 6 µM in data set [7]; 144 µM in data set [8]. For the same molecule, the catalytic efficiency (kcat/Km) – broadly, the second-order rate constant that governs catalysis at low substrate concentration – in data set [4] turned out to be 2000 M⁻¹ s⁻¹; in data set [5], 4670 M⁻¹ s⁻¹; in data set [6] it was 1670 M⁻¹ s⁻¹; in data set [7] it was 2500 M⁻¹ s⁻¹; in data set [8] it was 533 M⁻¹ s⁻¹.
